Literature values, collected in PMC3930863.

What was measured:
[1] = molecular target: InlC (Listeria monocytogenes) (UniProt P71451); assay: isothermal titration calorimetry
[2] = molecular target: N-WASP (Homo sapiens); assay: isothermal titration calorimetry

Chain of UniProt P71451 (P71451 35-297): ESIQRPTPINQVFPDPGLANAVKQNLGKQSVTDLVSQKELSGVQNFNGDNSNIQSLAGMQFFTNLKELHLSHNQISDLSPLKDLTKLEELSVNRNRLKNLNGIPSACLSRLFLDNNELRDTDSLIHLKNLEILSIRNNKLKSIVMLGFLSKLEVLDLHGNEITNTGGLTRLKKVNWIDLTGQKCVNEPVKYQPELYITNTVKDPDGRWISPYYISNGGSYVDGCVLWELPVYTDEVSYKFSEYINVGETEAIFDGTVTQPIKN

Question: What does the source list for Tuba SH3-6 (from UniProt Q6XZF7)?
Answer: Kd [1]: 5.4 µM; Kd [2]: 46.5 µM
